Assay results published in patent publication US20240209086A1 (PETMEDIX, published 2024).
Positions count from the first letter of the chain named.

T1: canine CD20 on cells (HEK293, MDCK II, CLBL-1 or native B cells) (canine, UniProt Q3C2E2 1-297)
T1 construct: also called dCD20; cCD20
T1 chain: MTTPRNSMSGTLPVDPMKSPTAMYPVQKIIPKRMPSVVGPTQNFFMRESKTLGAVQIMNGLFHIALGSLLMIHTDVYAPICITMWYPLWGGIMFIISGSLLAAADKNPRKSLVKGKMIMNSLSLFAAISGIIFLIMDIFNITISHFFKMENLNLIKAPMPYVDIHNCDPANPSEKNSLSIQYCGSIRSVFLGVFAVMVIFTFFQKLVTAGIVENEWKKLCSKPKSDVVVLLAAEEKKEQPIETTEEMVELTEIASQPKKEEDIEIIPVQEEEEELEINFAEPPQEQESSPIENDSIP

B1: PMX251 (monospecific anti-canine CD20, canine IgG-B, lambda C5) (antibody, V domains shown)
VH: EVQLVESGGDLVKPGGSLRLSCVASGFTFSSYHMSWVRQAPGKGLQWVAYINSGGSSTSYADAVKGRFTISRDNAKNTLYLQMNSLRAEDTAVYYCASFDYWGQGTLVTVSS
VL: SYVLTQLPSKNVTLKQPAHITCGGDNIGSKSVHWYQQKLGQAPVLIIYYDSSRPTGIPERFSGANSGNTATLTISGALAEDEADYYCQVWDSSANVFGGGTHLTVLG
B2: PMX250 (monospecific anti-canine CD20, canine IgG-B, lambda C5) (antibody, V domains shown)
VH: B1 VH with N84T, A97T
VL: B1 VL
B3: PMX244 (monospecific anti-canine CD20, canine IgG-B, lambda C5) (antibody, V domains shown)
VH: B1 VH with S31R, S57D, T58S, S59D, A97T, F99L
VL: B1 VL with V44I, S51R, S52R, S92R, A94G
B4: PMX159 in bispecific format (canine CD3 arm PMX159 x Rituximab arm, human IgG4PE knob-in-hole) (bispecific antibody)
heavy 1: ELTLQESGPGLVKPSQTLSLTCVVSGGSVTRSYYWNWIRQRPGRGLEWMGYWTGSTIYNPTFQGRISITADTAKSQFSLQLRSMTTEDTAMYFCAREGGKSLGAFAYWGQGTLVTVSSASTKGPSVFPLAPCSRSTSESTAALGCLVKDYFPEPVTVSWNSGALTSGVHTFPAVLQSSGLYSLSSVVTVPSSSLGTKTYTCNVDHKPSNTKVDKRVESKYGPPCPPCPAPEFEGGPSVFLFPPKPKDTLMISRTPEVTCVVVDVSQEDPEVQFNWYVDGVEVHNAKTKPREEQFNSTYRVVSVLTVLHQDWLNGKEYKCKVSNKGLPSSIEKTISKAKGQPREPQVYTLPPSQCEMTKNQVSLSCAVKGFYPSDIAVEWESNGQPENNYKTTPPVLDSDGSFFLVSRLTVDKSRWQEGNVFSCSVMHEALHNRFTQKSLSLSLGK
light 1: SYVLTQLPSKNVTLKQPAHITCGGDKIGSKNVHWYQQKLGQAPVMIIYYDSSRPTGIPERFSGANSGNTATLTISGALAEDEADYYCQVWDSSAKAAVFGGGTHLTVLRTVAAPSVFIFPPSDEQLKSGTASVVCLLNNFYPREAKVQWKVDNALQSGNSQESVTEQDSKDSTYSLSSTLTLSKADYEKHKVYACEVTHQGLSSPVTKSFNRGEC
heavy 2: not shown
light 2: QIVLSQSPAILSASPGEKVTMTCRASSSVSYIHWFQQKPGSSPKPWIYATSNLASGVPVRFSGSGSGTSYSLTISRVEAEDAATYYCQQWTSNPPTFGGGTKLEIKRTVAAPSVFIFPPSDEQLKSGTASVVCLLNNFYPREAKVQWKVDNALQSGNSQESVTEQDSKDSTYSLSSTLTLSKADYEKHKVYACEVTHQGLSSPVTKSFNRGEC
B5: PMX160 in bispecific format (canine CD3 arm PMX160 x Rituximab arm, human IgG4PE knob-in-hole) (bispecific antibody)
heavy 1: EVQMVESGGDLVKPGGSLRFSCVASGFTFSSYHMSWVRQAPGKGLQWVAYINSGGSRTSYADAVKGRFTISRDNAKNTLYLQMNSLRAEDTAVYYCASGRSPPPLGSFDYGLDYWGHGTSLFVSSASTKGPSVFPLAPCSRSTSESTAALGCLVKDYFPEPVTVSWNSGALTSGVHTFPAVLQSSGLYSLSSVVTVPSSSLGTKTYTCNVDHKPSNTKVDKRVESKYGPPCPPCPAPEFEGGPSVFLFPPKPKDTLMISRTPEVTCVVVDVSQEDPEVQFNWYVDGVEVHNAKTKPREEQFNSTYRVVSVLTVLHQDWLNGKEYKCKVSNKGLPSSIEKTISKAKGQPREPQVYTLPPSQCEMTKNQVSLSCAVKGFYPSDIAVEWESNGQPENNYKTTPPVLDSDGSFFLVSRLTVDKSRWQEGNVFSCSVMHEALHNRFTQKSLSLSLGK
light 1: B4 light 1 with K26N, N31S, M45L, A97W, G101E, H104Q
heavy 2: not shown
light 2: B4 light 2
B6: PMX162 in bispecific format (canine CD3 arm PMX162 x Rituximab arm, human IgG4PE knob-in-hole) (bispecific antibody)
heavy 1: EMQLVESGGDLVKPGGSLRLSCVASGFTFSTYHMSWVRQAPGKGLQWVAYSNSGGTRTYYADAVKGRFTISRDNVKNTLYLQMNSLRAEDTAVYYCASEGSGGGRYGFKDYGMDYWGHGTSLFVSTASTKGPSVFPLAPCSRSTSESTAALGCLVKDYFPEPVTVSWNSGALTSGVHTFPAVLQSSGLYSLSSVVTVPSSSLGTKTYTCNVDHKPSNTKVDKRVESKYGPPCPPCPAPEFEGGPSVFLFPPKPKDTLMISRTPEVTCVVVDVSQEDPEVQFNWYVDGVEVHNAKTKPREEQFNSTYRVVSVLTVLHQDWLNGKEYKCKVSNKGLPSSIEKTISKAKGQPREPQVYTLPPSQCEMTKNQVSLSCAVKGFYPSDIAVEWESNGQPENNYKTTPPVLDSDGSFFLVSRLTVDKSRWQEGNVFSCSVMHEALHNRFTQKSLSLSLGK
light 1: B4 light 1 with K26N, N31S, M45L, A97W, G101E, H104Q
heavy 2: not shown
light 2: B4 light 2

How the values were obtained:
[1] = target: T1, canine CD20 on cells (HEK293, MDCK II, …); experiment: flow cytometry, canine CD20 HEK293 cells, FITC anti-canine IgG
Method: (§1) A CD20 binding screen was performed on candidate proteins produced from the canine CD20 immunisation as described in Examples 2 and 3. CHO cells supernatants containing candidate antibodies were diluted to 10 μg/ml in FACS buffer (PBS containing 3% FBS) and screened for their ability to bind canine CD20 expressed on cell surface. In brief, 1-2×10⁵ canine CD20-expressing HEK cells were incubated with candidate mAbs for one hour at 4° C., at a fixed concentration of 10 μg/ml followed by incubation with 5 μg/ml of FITC-conjugated anti-canine IgG secondary antibody (Bethyl Laboratories) for 1 hour at 4° C. Cells incubated with anti-canine IgG FITC secondary antibody and without primary anti-canine CD20 antibody, or with isotype control primary antibody, were used as negative controls. The data were acquired on either a Beckman Coulter CytoFLEX or a BD Accuri C6 Plus flow cytometer and analysed using FlowJo software.

[2] = target: T1, canine CD20 on cells (HEK293, MDCK II, …); experiment: flow cytometry, canine CD20-expressing HEK cells, 10 µg/ml
Method: as §1

[3] = target: T2, canine CD3εδ-Fc (heterodimer of canine CD3ε-hIgG4PE-knob and canine CD3δ-hIgG4PE-hole) (canine); experiment: SPR Biacore 8K, single cycle, CD3εδ-Fc amine-coupled on CM5, antibody at 16.5, 33 and 66 nM
T2 construct: also called CD3εδ-Fc fusion protein; copies: 1 + 1
Method: Candidates CD3 bispecific antibodies were also screened for their ability to bind canine CD3εδ-Fc using surface plasmon resonance (SPR) using a Biacore 8K (Cytiva). Canine CD3εδ-Fc was covalently bound by amine coupling to the surface of a CM5 chip (Cytiva). CHO cell supernatant was diluted to 66, 33 and 16.5 nM in HBS-EP+ buffer and run on the chip single cycle kinetic protocol. Data was analysed using the dedicated software (Biacore Insight Evaluation Software).

T2 sequence (chain, as listed by the source mutant limits assumed): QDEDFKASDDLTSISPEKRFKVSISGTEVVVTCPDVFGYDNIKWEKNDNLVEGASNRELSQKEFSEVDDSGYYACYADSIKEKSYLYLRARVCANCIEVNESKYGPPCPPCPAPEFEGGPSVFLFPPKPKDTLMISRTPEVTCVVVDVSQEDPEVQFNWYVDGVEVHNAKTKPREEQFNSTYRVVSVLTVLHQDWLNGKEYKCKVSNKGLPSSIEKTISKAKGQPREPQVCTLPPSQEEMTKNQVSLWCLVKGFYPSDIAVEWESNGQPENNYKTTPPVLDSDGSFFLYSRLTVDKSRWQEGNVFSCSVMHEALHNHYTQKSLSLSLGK

| Binder | binding result [1] | binding result [3] | other results |
| --- | --- | --- | --- |
| B1 | no binding (tested: 10 µg/ml) | – | – |
| B2 | no binding (tested: 10 µg/ml) | – | – |
| B3 | – | – | binding result [2]: binds |
| B4 | – | binds | – |
| B5 | – | binds | – |
| B6 | – | binds | – |
